Data as given in paper PMC4990970 (2016).

Assays:
[1] = target: AtBAG5-IQR (AtBAG5-long with Ile57, Gln58 and Arg62 substituted with alanine) (Arabidopsis thaliana, UniProt O65373 49-153, Ile57 to alanine | Gln58 to alanine | Arg62 to alanine); assay: ITC
AtBAG5-CaM (with Ca2+) = assay: ITC; with Ca2+ (AtBAG5/holo-CaM complex)
AtBAG5/holo-CaM = AtBAG5/holo-CaM (Arabidopsis thaliana (AtBAG5); Homo …); assay: ITC; with Ca2+; AtBAG5 pre-bound to holo-CaM

Kd [1] [µM]	Kd (AtBAG5-CaM (with Ca2+)) [µM]	Kd (AtBAG5/holo-CaM) [µM]	Binder
0.48	53.3		ATPase domain of human Hsp70 (called Hsc70 in the results) (domain or fragment) not shown
		53.3	ATPase domain of human Hsp70 (called Hsc70 in the results) (domain or fragment, CaM Ca2+-saturated (holo, 4 Ca2+; 10 mM CaCl2). AtBAG5-long limits are printed. CaM is full length with the initiator Met removed by convention. CaM species is not printed: Met144 in mature numbering fits vertebrate CaM rather than plant CaM (Val144).) not shown
